Measured values from the DeepSol protein solubility set.

Test: soluble on expression in E. coli; label from the status in PepcDB or PDB records

Sequence | soluble on expression in E. coli
DWNNQSIVKTGERQHGIHIQGSDPGGVRTASGTTIKVSGRQAQGILLENPAAELQFRNGSVTSSGQLSDDGIRRFLGTVTVKAGKLVADHATLANVGDTWDDDGIALYVAGEQAQASIADSTLQGAGGVQIERGANVTVQRSAIVDGGLHIGALQSLQPEDLPPSRVVLRDTNVTAVPASGAPAAVSVLGASELTLDGGHITGGRAAGVAAMQGAVVHLQRATIRRGDALAGGAVPGGAVPGGAVPGGFGPGGFGPVLDGWYGVDVSGSSVELAQSIVEAPELGAAIRVGRGARVTVPGGSLSAPHGNVIETGGARRFAPQAAPLSITLQAGAHAQGKALLYRVLPEPVKLTLTGGADAQGDIVATELPSIPGTSIGPLDVALASQARWTGATRAVDSLSIDNATWVMTDNSNVGALRLASDGSVDFQQPAEAGRFKVLTVNTLAGSGLFRMNVFADLGLSDKLVVMQDASGQHRLWVRNSGSEPASANTLLLVQTPLGSAATFTLANKDGKVDIGTYRYRLAANGNGQWSLVGAKAPP | soluble
MKDWFMNLLYYLKRPFIRLSRFRYRCGYGVHSPFAFSLITDVIYEKMPYYAYDLLKVEQKKRITTQRWEKGIPRINRLLFRLVNKVQPATIIEVGQPSAASLYLQSAKPSAGYLFASDLSELFLDADTPVDFLYLNDYRNPALLEEVFNICSRRTTPNSLFVVHGICYSKAMKNLWKQLQNDERVGITFDLYDAGLLFFDTTKIKQHYIVNF | not soluble
MGQDTDMLNTYQQLVRTPSVRPGQDVRLQAPGTRTGLLKLLSTVSQDKQGCLGSGDGVPNQDLQQRSQSSRQTAKKDRKPRGQSKKGQGSEESEDHFPLLPRKPSFPFQWAWESIATDVRAVLQPSSPTPGHQALPMPSSFSQRQSRRKSTANLPEAHGCCWKTEAQNLKARQQLGAWGGVSIPTGKGELGSEPPSGLQLPGRRPGSGSASDKQVQLQSLGAEEAERGLSSGVLPQRPRRGSISEEEQFSEATEEAEEGEHRTPCRRRAGCQRKGQISGEEASDEGEVQGQSQGSSPSFNNLRRRQWRKTRAKELQGPWDLEKLHRQLQRDLDCGPQKLPWKTLRAAFQASKRNGKAYASGYDETFVSANLPNRTFHKRQEATRSLLQAWERQRQEERQQAELRRARTQHVQRQVAHCLAAYAPRGSRGPGAAQRKLEELRRQERQRFAEYQAELQGIQHRVQARPFLFQQAMQANARLTVTRRFSQVLSALGLDEEQLLSEAGKVDREGTPRKPRSHRSVGVRMEHSPQRPPRTEPTGSQPDRHYNPSLDPECSP | not soluble
MAHHHHHHMTQQWFPLMAVTPDYLHCITEERFRTNVYEPEADTFLLLEALDKDAHLLRALQPRRCVEIGCGSGTVISHLMLLLLGATEGGNLGSGSAEKSTAEFHAVDVNPVALEATSITWHNTQKRIIGGDTILPLHLHRGDLFSPFEHEASDITEYTKEEKEEFTFDVILFNPPYVPTTMEELQSAEAGKDLITAAWCGGPRGRVVVDRFISKLPSFLSSRGVCYIVAIRENDVEELMEVIRGTFPNDRCYPVNVTVTAERYTGEHLRVIRVS | not soluble
MALKLPIPHNILILNRNSALELLRALKEVPKLIITRIPPDEWPDVAYTEYIWLSRVEGPNSVSPTALHVIIERAKTFLDENSGGVIYVDGIEYIMLYEEFKSVAKFLLTLKDIAVVKEGHLILHVDPKTLEDHQMAVLEREFVKINVEETIEKIRGPTLFGALIEEKGLEHHHHHH | soluble
MGSDKIHHHHHHKQEPISKSGVPVINLSEDVSTVPSLLLSEAAEKLEIVPLEMTDESVLSDITEMQVTDHNIWIDHGREFYIYRFSRTGKFLNKIGSIGQGPGEYTTYSTFLVDEDKKEVYIIANTNGVLAYDFEGNFKRKIIDIQMILQLFSSPYDQYILNNQKFFATQNFGLYRPIDKDSLWSFVSLGDDFQKKKYFKNPAHVGREEQIIANRANMDRMVNYWREYLTSMDTYNAQLTLKYPDTDTIYCYDDATNQLSPQYAIFTDEEKGDYEATHLWFKDRKAFDYFSIFSYYPTKDFIYLVGSKGEEVYTYCYNKKDGSVRLQKRQSTITERDVPWFSFPLRQMKRDFVLDNDLGGGDFTVDSRSSGKYWIDILEPGGDENWIDIDQIKSSTVIDESKKKELIRVLESATEDSNPILMIATLK | not soluble
MDKKQVTDLRSELLDSRFGAKSISTIAESKRFPLHEMRDDVAFQIINDELYLDGNARQNLATFCQTWDDENVHKLMDLSINKNWIDKEEYPQSAAIDLRCVNMVADLWHAPAPKNGQAVGTNTIGSSEACMLGGMAMKWRWRKRMEAAGKPTDKPNLVCGPVQICWHKFARYWDVELREIPMRPGQLFMDPKRMIEACDENTIGVVPTFGVTYTGNYEFPQPLHDALDKFQADTGIDIDMHIDAASGGFLAPFVAPDIVWDFRLPRVKSISASGHKFGLAPLGCGWVIWRDEEALPQELVFNVDYLGGQIGTFAINFSRPAGQVIAQYYEFLRLGREGYTKVQNASYQVAAYLADEIAKLGPYEFICTGRPDEGIPAVCFKLKDGEDPGYTLYDLSERLRLRGWQVPAFTLGGEATDIVVMRIMCRRGFEMDFAELLLEDYKASLKYLSDHPKLQGIAQQNSFKHT | soluble
MHPDQKKTFKEKNDIRKKLFNSTKEERLDWRKMKDEKKRKNEEKIIKEAEEAKKAKIEKVDHTPPFTISIAVPGQFLNNAQSAELRTYMAGQIARAATLYRVDEIIIYDESCRMTDEAVNAYYNGTWQGNLIPAETNYEGCFYLAKILEYLECPQYLRKDLFPIQKPLKNAGLLNPLDAQHHLKYDEKTLRFREGVVLKKRSKDGRGPICNIGLEKEFEIDSDAVQLPPYTRVTVEIKNLTEQCKLYRGSITSGATVTRETGLYWGYSVRLMTGLQKVLQAKKFDIVAGVSPRGKLASQMDVCILNKPKILLVFGGVAGVDAAVESEELAEWRRAEDAFDVLIRTTSLSNGSRSERVEENVLSVLAQVQCHLETLNAL | not soluble
MATIRKADYYYGALLSALVNGGLAPALFEKENDNRQIYEVTTNKASYIMYTKYNTNPSGSKDFTWSFVFSDHEIAEINKIYLEHSKEKEIMFAFVCAQKQPSDSNQVIAIVRWNEFLECVDLQRQQVRGTPRLSIKAVKGSPKLRLYGSKRADVLDGKDHTIKIERNRLNSL | not soluble
MGSDKIHHHHHHMSQVVIAVLANAGGVGKSTLSVHLAYEVSRRKLKVALLDLDPQRSLDVFCGLEAAEAEKTMFKVLSKDFIGDWALASAWDEPRIEVCQGHPLLAEIANELVIRKRGEYMLADRLQKYSLPHDLVIVDCPATLGMLNVNALAAATHILVPIQLEMKAISGSAELVEWCMNTSEELQLTPKPQILGFVPSMYDETVAMHRQYHSQLPEIALQLDIKLYPKIRSSNEFKNASAHGLPLHKYRNKHPACKDFKQIADDVIQLIKNK | not soluble
MSLKFVGLVGSNAEQSYNRKLLEYIRKQFKLKFELELLEIDEVPMFNQDQSWKDSFQLRLLYNKIIRADGVIIATPEHNHTITAALKSVLEWLSCEVHPFENKPVMIVGASYYDQGTSRAQVHLRKILDAPGVNAYTLPGNEFLLGKAKEAFDDNGNIINQGTVDFLETCLDNFMSYVGVVSKLQKPKPIEPEDLDCNHPIATTITEVDPDDPEWVEKVAEITGAVSGDAYVKLDHGILTVDQINMFLKAMPFELTYADDNNQFLYYNNAHQDPDTMYAKRIPEQSGNRLSTVHNSLPAGRMKNVEWVIGTLRNGNQEYVRTLIPSPNPAVLNTHNYQAMYYDDGSFAGINEIVFNFKPWLDWYLQTTGQRLVGGEGHHHHHH | soluble
SLDDMTEFKNMPKVELHAHLSGSLSPETIKLIMESDETRAEEIMKKYKLEKPENMTGVFDCFPVIHAILRKPEAIRIAIRQTIKEFEEDNCVYLELRTSPKETDFMTYEDYLQVCIESFEAAKHEFPRIKTFLIVSLDRRMPFETAAHILGLIGEAQQRTNVIVGVELSGDPHLDGRRLLKLFVAARRFHGLGITIHLAEVLQNMADVEDYLNLRPDRIGHGTFLHTDPYTEYLTNKYKIPLEICLSSNVYSKTTTNYRNSHFNYWRKRGVPVFICTDDKGVIPGATLTEEYYKAAITFDLSTEELIGINQDALLNSFAYKYNVTDLTETFRKINNNVLD | soluble
MGSDKIHHHHHHVVEQSLSVRNGIRHIVWDWNGTLLDDNHANLAAANHVCEMFGVPPMTLEDWRKIFRRPLVPFYEELLGRPLSDEEWQRLDAAYNSYYQRLLPSCRLADGAVDTLHQWRRAGGTQSLLSMAAHDHLVPVITEFGLVSHFTRVDGRQRTTDADSKAEYLAAHLDAQGIDPATVVLIGDIDDDAHAARMVGAKAVLVATGLMSRERLEATGHPVADSLTEAVQLVHG | not soluble
MGSDKIHHHHHHMYEKYIVEGLSDREIAYLIGCGKATVVRARQKHGIYREDVKMCDDYTLDNISEDLRTFIDGLLLGDACITEKGNLLITQNKRYDWLEYVKHRFQQFGLNVYFHCYKYKRRTSEVIADLYVLSTSRYELFRQLRERWYPDGIKRIPNDLVINDEGLAQWYLGDGSLTKQKNGYKLELSTHGFTLDENKFLQQKLKLLYGFDFRISKKHQYRYLRLFKSKQVHAFCSIVEPFIPPSYRNKVRCLHDYQWLKSWDVI | not soluble
GAEPVDEEAPLLMKNQKDFSSYLMGRQSIYKRHIIEDFVRKMLPGISEHKAASINNAVYSNFVREYKMLVKPEVSKKNYSRDVPFPDIELSLLPGAKEILEKSRNANSRVILISNRGHGDLENEINHLGMMHYFDVVSGAEEVTLEKSHLPPSQMPEDLQKRLINSLNGSDEEALRATLSEAAIYAHPDSTTIERIDKKPDSTRLAESLERLSVQPNVPITSYGDQPSDIKQLKSVAEPKSRVLKGVIVNAQRDDVGREIDVDGVPTRVVSKITEL | not soluble
MFRKLGSSGSLWKPKNPHSLEYLKYLQGVLTKNEKVTENNKKILVEALRAIAEILIWGDQNDASVFDFFLERQMLLYFLKIMEQGNTPLNVQLLQTLNILFENIRHETSLYFLLSNNHVNSIISHKFDLQNDEIMAYYISFLKTLSFKLNPATIHFFFNETTEEFPLLVEVLKLYNWNESMVRIAVRNILLNIVRVQDDSMIIFAIKHTKEYLSELIDSLVGLSLEMDTFVRSAENVLANRERLRGKVDDLIDLIHYIGELLDVEAVAESLSILVTTRYLSPLLLSSISPRRDNHSLLLTPISALFFFSEFLLIVRHHETIYTFLSSFLFDTQNTLTTHWIRHNEKYCLEPITLSSPTGEYVNEDHVFFDFLLEAFDSSQADDSKAFYGLMLIYSMFQNNADVGELLSAANFPVLKESTTTSLAQQNLARLRIASTSSISKRTRAITEIGVEATEEDEIFHDVPEEQTLEDLVDDVLVDTENSAISDPEPKNVESESRSRFQSAVDELPPPSTSGCDGRLFDALSSIIKAVGTDDNRIRPITLELACLVIRQILMTVDDEKVHTSLTKLCFEVRLKLLSSIGQYVNGENLFLEWFEDEYAEFEVNHVNFDIIGHEMLLPPAATPLSNLLLHKRLPSGFEERIRTQIVFYLHIRKLERDLTGEGDTELPVRVLNSDQEPVAIGDCINLHNSDLLSCTVVPQQLCSLGKPGDRLARFLVTDRLQLILVEPDSRKAGWAIVRFVGLLQDTTINGDSTDSKVLHVVVEGQPSRIKKRHPVLTAKFIFDDHIRCMAAKQRLTKGRQTARGLKLQAICSALGVPRIDPATMTSSPRMNPFRIVKGCAPGSVRKTVSTSSSSSQGRPGHYSANLRSASRNAGMIPDDPTQPSSSSERRS | not soluble
MSADVVENGRAYNALWWAKVQSGGPQKVPADTPAVAGLARAVEPDGSGLWMLPTVPDGAGHGVLEELGAPPVAVEMPNETARVLAICVACCWTDRDASTWPGVTGTLAQVKAVYAGMRGRAEQSSDLTLIIGSLRRLHATHWLLWNEKAGEVRLGPRTITWSPSDLATLREICRVLPDPPPAVLVARAPEPTPDPLPVAASADGPAPSSDQAAASALPSPAAPPADGAPGPTPDPSPSLTSTSPAPSAPARSTEQSG | not soluble
MNIVVLISGNGSNLQAIIDACKTNKIKGTVRAVFSNKADAFGLERARQAGIATHTLIASAFDSREAYDRALIHEIDMYAPDVVVLAGFMRILSPAFVSHYAGRLLNIHPSLLPKYPGLHTHRQALENGDEEHGTSVHFVTDELDGGPVILQAKVPVFAGDSEDDITARVQTQEHAIYPLVISWFADGRLKMHENAAWLDGQRLPPQGYAADE | soluble
